Values of other authors in paper PMC2833280.

Columns and labels:
Assay in all cases: kinetics
Lys443 [1] = target: Lys443 (UniProt position 443, TVNRPKLGVHE); conditions: enzyme-substrate complexes (kcat)
Glu380 = Glu380 (UniProt position 380, TRWTGEFATHG)
Lys443 [2] = target: Lys443 (UniProt position 443, IVWRKKIGIHE); conditions: enzyme-ATP complex and free CMPr (kcat/Km)

beta-Lactam synthetase (beta-LS) (Streptomyces clavuligerus (printed 'Streptomyces clavuligerous'))
pKa (Lys443 [1]): 8.07 ± 0.05

Carbapenam synthetase (CPS, CarA) (Pectobacterium carotovorum (printed 'Pectobacterium carotorova'; formerly Erwinia carotovora))
pKa (Glu380; enzyme-ATP complex and free CMPr (kcat/Km)): 7.8 ± 0.1
pKa (Glu380; enzyme-substrate complexes (kcat)): 7.4 ± 0.1
pKa (Lys443 [2]): 10.0 ± 0.1
